Substitutions are numbered along the chain they refer to.
B1: Sec13 (natural protein, S. cerevisiae, UniProt Q04491 1-297, looked up)
chain: MVVIANAHNELIHDAVLDYYGKRLATCSSDKTIKIFEVEGETHKLIDTLTGHEGPVWRVDWAHPKFGTILASCSYDGKVLIWKEENGRWSQIAVHAVHSASVNSVQWAPHEYGPLLLVASSDGKVSVVEFKENGTTSPIIIDAHAIGVNSASWAPATIEEDGEHNGTKESRKFVTGGADNLVKIWKYNSDAQTYVLESTLEGHSDWVRDVAWSPTVLLRSYLASVSQDRTCIIWTQDNEQGPWKKTLLKEEKFPDVLWRASWSLSGNVLALSGGDNKVTLWKENLEGKWEPAGEVHQ
B2: Sec16 central conserved domain (residues 984–1421) (domain or fragment, S. cerevisiae, UniProt P48415 984-1421, looked up)
chain: DNEALLRRQFPIFHWSAANKVVYAVPPIPDQSQYMISSSIVQEIKVTPIDQIIKPNDMLKSFPGPLGSAKLKKKDLTKWMETTIKSISENESSTDMTIWQLLEMKLNDKVNWKNISKLLYNSDELLMYLSQPFPNGDMIPNAYRLDINCQMRVLAFLQTGNHDEALRLALSKRDYAIALLVGSLMGKDRWSEVIQKYLYEGFTAGPNDQKELAHFLLLIFQVFVGNSKMAIKSFYTNNETSQWASENWKSIVAAVLINIPENNEDPLLIPPVVLEFLIEFGIFLTKKGLTAAASTLFIIGNVPLSNEPVMADSDVIFESIGNMNTFESILWDEIYEYIFSYDPKFKGFSSILPQKIYHASLLQEQGLNSLGTKYTDYLSSSVRKLPKKDILTINLTRELSEVASRLSESNTGWLAKPKLSSVWGQLDKSFNKYIGGDD
B3: Sec31 (residues 370–746) (domain or fragment, yeast, UniProt P38968 370-746, looked up)
chain: HLQAPTWYGEPSPAAHWAFGGKLVQITPDGKGVSITNPKISGLESNTTLSEALKTKDFKPLINQRLVKVIDDVNEEDWNLLEKLSMDGTEEFLKEALAFDNDESDAQDDANNEKEDDGEEFFQQIETNFQPEGDFSLSGNIEQTISKNLVSGNIKSAVKNSLENDLLMEAMVIALDSNNERLKESVKNAYFAKYGSKSSLSRILYSISKREVDDLVENLDVSQWKFISKAIQNLYPNDIAQRNEMLIKLGDRLKENGHRQDSLTLYLAAGSLDKVASIWLSEFPDLEDKLKKDNKTIYEAHSECLTEFIERFTVFSNFINGSSTINNEQLIAKFLEFINLTTSTGNFELATEFLNSLPSDNEEVKTEKARVLIASGK
B4: Sec31ΔL (residues 370–746, deletion of residues 474–507) (domain or fragment, yeast, UniProt P38968 370-746, looked up)
chain: HLQAPTWYGEPSPAAHWAFGGKLVQITPDGKGVSITNPKISGLESNTTLSEALKTKDFKPLINQRLVKVIDDVNEEDWNLLEKLSMDGTEEFLKEALAFDNDESGNIEQTISKNLVSGNIKSAVKNSLENDLLMEAMVIALDSNNERLKESVKNAYFAKYGSKSSLSRILYSISKREVDDLVENLDVSQWKFISKAIQNLYPNDIAQRNEMLIKLGDRLKENGHRQDSLTLYLAAGSLDKVASIWLSEFPDLEDKLKKDNKTIYEAHSECLTEFIERFTVFSNFINGSSTINNEQLIAKFLEFINLTTSTGNFELATEFLNSLPSDNEEVKTEKARVLIASGK

Experiments:
[1] = target: T1, Sec31EE (residues 370–746, M540E and L544E) (yeast, UniProt P38968 370-746, M540E | L544E); experiment: SEC
T1 sequence (looked up): B3 chain with M171E, L175E

[2] = target: B2; experiment: AUC
AUC = target: the molecule itself; experiment: AUC
SEC = target: the molecule itself; experiment: SEC
crystal structure = target: the molecule itself; experiment: crystal structure

B1
stoichiometry N [1]: 1 Sec13 per Sec31EE (printed 1:1)
stoichiometry N [2]: 1 Sec13 per Sec16 (printed 2:2)

B2
stoichiometry N (AUC): 2 copies of Sec16 in the tetramer

B3
binding result (SEC): binds

B4
binding result (crystal structure): binds
